The values that follow come from paper PMC7884335.

Conditions in all cases: EMSA: Tris-HCl pH 8.0, MgCl2, NaCl, EDTA, 1 mM DTT, 0.01% NP-40, 50 ug/ml poly[d(I-C)], glycerol (masses given, total volume not stated), room temperature …
On the technique in general: Mobility shift assays separate free from complexed probe on a gel.

Data set [1] relates to His-PrpR (Msm) (Mycobacterium smegmatis MC2 155). Description: BLI.
The test system of data set [2] is His-RegX3 (Msm) (Mycobacterium smegmatis MC2 155). The experiment in a line: BLI. A general note: In BLI a coated tip is dipped into the sample, and binding shifts an interference pattern.
In data set [3] the target is T1, His-RegX3 (Msm) (Mycobacterium smegmatis MC2 155) (UniProt Q9F868).
T1 sequence: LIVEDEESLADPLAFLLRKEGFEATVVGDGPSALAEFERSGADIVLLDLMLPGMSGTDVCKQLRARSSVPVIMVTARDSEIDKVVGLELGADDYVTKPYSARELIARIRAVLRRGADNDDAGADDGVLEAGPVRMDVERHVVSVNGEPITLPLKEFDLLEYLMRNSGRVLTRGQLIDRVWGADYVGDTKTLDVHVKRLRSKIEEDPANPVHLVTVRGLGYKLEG
The experiment in a line: EMSA.

In general, Kd refers to the free concentration of one partner at which half of the binding sites on the other are occupied at equilibrium, for simple one-to-one binding. A higher Kd goes with weaker binding.

As for prpR promoter probe for BLI (Msm), the figures for the Kd in data set [1] and in data set [2] were 53.2 nM and 165 nM, respectively.
“AGCCAGTGGCGATAAGACACACAGCCTAACCGCGATTCTTACACAGGATTTGCAAAGGCTGGCCCACCAGGACACAAAACTACGCATATACAGGCTCTTTACGTGCCATTAGGGGCCTTATCGCCACTGGCT (double strand) [PprpR-3]”: the binding result in data set [3] is “binds”.
